{"source": "paper PMC4435181", "origin": "cited, not measured here", "target": "HER2 ECD (Homo sapiens) (UniProt P04626)", "experiment": "ELISA"}
{"substance": "trastuzumab", "values": [{"measurement": "Kd", "value": 100, "unit": "pM"}]}
